Results reported in patent US20250230248A1 (TAVOTEK BIOTHERAPEUTICS HONG KONG, published 2025).

How the values were obtained:
[1] = biological target: T1, recombinant human EGFR ECD (human, UniProt P00533 25-645); assay: ELISA on EGFR ECD, FIG. 2A
T1 construct: extracellular domain; also called EGFR extracellular domain (ECD)

[2] = biological target: T2, cMET extracellular domain (ECD) (UniProt P08581 25-932, limits assumed); assay: ELISA on cMET ECD, FIG. 3A
T2 construct: extracellular domain; Probably the same reagent as recombinant human cMET; also called cMET ECD
T2 sequence (P08581 25-932 limits assumed): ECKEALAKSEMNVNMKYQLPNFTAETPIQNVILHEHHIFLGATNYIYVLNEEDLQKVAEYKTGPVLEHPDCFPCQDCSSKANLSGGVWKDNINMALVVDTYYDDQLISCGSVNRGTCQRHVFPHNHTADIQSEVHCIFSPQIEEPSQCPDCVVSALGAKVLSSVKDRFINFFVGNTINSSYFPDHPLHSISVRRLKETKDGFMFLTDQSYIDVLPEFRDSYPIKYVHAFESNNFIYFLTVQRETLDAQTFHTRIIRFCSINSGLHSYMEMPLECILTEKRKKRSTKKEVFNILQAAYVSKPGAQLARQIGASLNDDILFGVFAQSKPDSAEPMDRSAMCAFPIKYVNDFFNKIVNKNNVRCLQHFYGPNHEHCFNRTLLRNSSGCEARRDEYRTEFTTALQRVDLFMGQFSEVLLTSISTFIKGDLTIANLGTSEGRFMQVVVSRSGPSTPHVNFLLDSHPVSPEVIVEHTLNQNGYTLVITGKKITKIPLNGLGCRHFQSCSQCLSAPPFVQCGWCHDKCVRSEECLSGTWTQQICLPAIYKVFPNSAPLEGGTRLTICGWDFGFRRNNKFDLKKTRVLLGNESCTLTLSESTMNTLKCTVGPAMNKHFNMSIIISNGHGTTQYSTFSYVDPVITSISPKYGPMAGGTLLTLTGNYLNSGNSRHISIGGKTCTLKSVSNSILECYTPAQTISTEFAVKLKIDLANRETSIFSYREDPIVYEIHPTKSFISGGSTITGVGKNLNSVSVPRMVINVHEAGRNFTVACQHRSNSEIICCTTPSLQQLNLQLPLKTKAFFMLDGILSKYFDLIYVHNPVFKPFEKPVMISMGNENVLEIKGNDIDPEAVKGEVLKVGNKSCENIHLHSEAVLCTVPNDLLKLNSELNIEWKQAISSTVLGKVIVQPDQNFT

[3] = biological target: T2, cMET extracellular domain (ECD); assay: blocking of HGF binding to cMET ECD, ELISA, FIG. 3F
EGFR on HCC827 cells [4] = biological target: T3, EGFR on HCC827 cells (UniProt P00533 25-1210); assay: blocking of EGF binding to EGFR on HCC827 cells, FACS, FIG. 8B
T3 construct: whole, on cells; human tumour cell line; also called EGFR (HCC827)

EGFR on HCC827 cells [5] = biological target: T3, EGFR on HCC827 cells; assay: blocking of EGF-EGFR binding, HCC827 cells, gMFI, FIG. 2D

B1: gp120 mAb (antibody, V domains shown)
VH: QVQLVQSGAEVKKPGASVKVSCQASGYRFSNFVIHWVRQAPGQRFEWMGWINPYNGNKEFSAKFQDRVTFTADTSANTAYMELRSLRSADTAVYYCARVGPYSWDDSPQDNYYMDVWGKGTTVIVSS
VL: EIVLTQSPGTLSLSPGERATFSCRSSHSIRSRRVAWYQHKPGQAPRLVIHGVSNRASGISDRFSGSGSGTDFTLTITRVEPEDFALYYCQVYGASSYTFGQGTKLERK
notes: also called anti-gp120 mAb v12; null control Ab
binding result [1]: no binding

B2: EV1 (antibody, V domains shown)
VH: QVQLVQSGAEVKKPGASVKVSCKASGYTFTDYYMHWVRQAPGQGLEWMGRVNPNRGGTTYAQKFQGRVTMTTDTSISTAYMELSRLRSDDTAVYYCARANWLDYWGQGTTVTVSS
VL: DIQMTQSPSSLSASVGDRVTITCRVSQSVSSIYLHWYQQKPGKAPKLLIYSTSNLQSGVPSRFSGSGSGTDFTLTISSLQPEDFATYYCQVYSGYPLTFGGGTKVEIK
notes: anti-cMET mAb hit; also called cMET EVH1 / cMET EVL1
EC50 [2]: ~0.0175 µg/mL
EC50 [3]: ~0.093 µg/mL

B3: 7D VH6×EV1 bispecific antibody (bispecific antibody, not shown: a dimerising Fc or GST)
chain: not shown
VH: B2 VH
VL: B2 VL
notes: also called EGFR×cMet hit; candidate BsAb
EC50 (EGFR on HCC827 cells [4]): ~0.63 nM

B4: 7D VH4×EV1 bispecific antibody (bispecific antibody, not shown: a dimerising Fc or GST)
chain: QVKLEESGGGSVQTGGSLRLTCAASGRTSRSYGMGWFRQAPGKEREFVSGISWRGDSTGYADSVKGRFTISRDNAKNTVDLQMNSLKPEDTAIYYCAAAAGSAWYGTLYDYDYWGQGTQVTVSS
VH: B2 VH
VL: B2 VL
notes: as for B3
EC50 (EGFR on HCC827 cells [4]): ~0.81 nM

B5: TV4 (antibody, V domains shown)
VH: QVQLQESGPGLVKPSGTLSLTCAVSGYIFTAYTMHWVRQPPGKGLEWIGGIKPNNGLANYNPSLKSRATLSVDKSKNQASMKLSSVTAADTAVYYCARSEITTEFDYWGQGTLVTVSS
VL: DIQMTQSPSSLSASVGDRVTITCRASESVDSYANSFMHWYQQKPGKAPKLLIYRASNLESGVPSRFSGSGSGTDFTLTISSLQPEDFATYYCQQSKEDPLTFGGGTKVEIK
notes: anti-cMET mAb hit; also called cMET TVH2 / cMET TVL2
EC50 [2]: ~0.018 µg/mL
EC50 [3]: ~0.108 µg/mL

B6: 7D VH6×TV4 bispecific antibody (bispecific antibody, not shown: a dimerising Fc or GST)
chain: not shown
VH: B5 VH
VL: B5 VL
notes: as for B3
EC50 (EGFR on HCC827 cells [4]): ~0.63 nM

B7: 7D VH4×TV4 bispecific antibody (bispecific antibody, not shown: a dimerising Fc or GST)
chain: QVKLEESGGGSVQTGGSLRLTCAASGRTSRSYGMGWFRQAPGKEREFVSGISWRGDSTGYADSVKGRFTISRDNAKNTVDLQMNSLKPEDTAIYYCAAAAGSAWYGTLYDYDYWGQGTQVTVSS
VH: B5 VH
VL: B5 VL
notes: as for B3
EC50 (EGFR on HCC827 cells [4]): ~0.93 nM

B8: TV1 (antibody, V domains shown)
VH: QVQLVQSGAEVKKPGSSVKVSCKASGYIFTAYTMHWVRQAPGQGLEWMGGIKPNNGLANYAQKFQGRVTITADESTSTAYMELSSLRSEDTAVYYCARSEITTEFDYWGQGTLVTVSS
VL: DIVMTQSPDSLAVSLGERATINCKSSESVDSYANSFLHWYQQKPGQPPKLLIYRASTRESGVPDRFSGSGSGTDFTLTISSLQAEDVAVYYCQQSKEDPLTFGGGTKVEIK
notes: anti-cMET mAb hit; also called cMET TVH1 / cMET TVL0
EC50 [2]: ~0.0185 µg/mL
EC50 [3]: ~0.122 µg/mL

B9: Onartuzumab (antibody, V domains shown)
VH: EVQLVESGGGLVQPGGSLRLSCAASGYTFTSYWLHWVRQAPGKGLEWVGMIDPSNSDTRFNPNFKDRFTISADTSKNTAYLQMNSLRAEDTAVYYCATYRSYVTPLDYWGQGTLVTVSS
VL: DIQMTQSPSSLSASVGDRVTITCKSSQSLLYTSSQKNYLAWYQQKPGKAPKLLIYWASTRESGVPSRFSGSGSGTDFTLTISSLQPEDFATYYCQQYYAYPWTFGQGTKVEIK
notes: also called cMET OVH0 / cMET OVL0
EC50 [2]: ~0.025 µg/mL
EC50 [3]: ~0.093 µg/mL

B10: 7D VH1 (VHH)
VHH: EVQLVESGGGVVRPGGSLRLSCAASGRTSRSYGMGWFRQAPGKEREFVSGISWRGDSTGYADSVKGRFTISRDNAKNSVDLQMNSLRAEDTALYYCAAAAGSAWYGTLYEYDYWGQGTQVTVSS
notes: also called 7D VH hit; EGFR VHO mAb
EC50 (EGFR on HCC827 cells [5]): ~0.025 µg/mL
